Assay results as given in the DeepSol protein solubility set.

test: soluble on expression in E. coli; label from the status in PepcDB or PDB records

| Sequence | soluble on expression in E. coli |
| --- | --- |
| MFDSIRETIDYAVENNMSFADIMVKEEMELSGKSRDEVRAQMKQNLDVMRDAVIKGTTGDGVESVTGYTGHDAAKLRDYNETHHALSGYEMIDAVKGAIATNEVNAAMGIICATPTAGSSGTIPGALFKLEKTHDLTEEQMIDFLFTSALFGRVVANNASVAGATGGCQAEVGSASAMAAAAAVAIFGGSPEASGHAMALAISNLLGLVCDPVAGLVEIPCVMRNAIGSGNALISADLALAGIESRIPVDEVIEAMDKVGRNLPASLRETGLGGLAGTPTGEAIKRKIFGTAEDMVKNN | not soluble |
| MRHILSVLIENESGAMSRVVGLFSARDYNIDSLAVAPTEDKTLSRMTIVTHGDEQVIEQITKQLNKLIEVIKVVDLNESRFVERELMLVKVRAAGKDRDEFLRLTEIYRGSIIDVTDRSYTIEITGSTDKLDSFLETVGRAQILETVRTGAAGIGRGERILKI | not soluble |
| MGSDKIHHHHHHMTSKLAAVSHIEKIALGLRDQAHAVIKNILMMSDIPTQELQHAMKQLSHQGRVALHFHPDRIDNRGLTVVQGLLRDGIYKSQFETHISNGQLSPELGGPRDHWENQLFGNSYSGIKSRPKYGALDLGLCPLGPAPRFGSCYFLTHSQVLSRCTFSYMDSYRLPKEKGTLSCFDAILAALLSESFERCYALGRQPFKPRDIMAHMACEAKSSVAARFELPGLGNLDHYIEAQIHGDVSLADDIGYLVADPSFKGTETEEYFNQLCSDYQINLHWHNGLTLACDKVPTDFRGAAMPVLAKQIAIDEVIDAKTVGAEAARLQKQPSSWSERGSQAKKTQELKLLWHVLVRFGKPREDNFDNH | not soluble |
| MKLSEYGLQLQEKQKLRHMYGVNERQFRKTFEEAGKMPGKHGENFMILLESRLDNLVYRLGLARTRRQARQLVTHGHILVDGSRVNIPSYRVKPGQTIAVREKSRNLQVIKEALEANNYIPDYLSFDPEKMEGTYTRLPERSELPAEINEALIVEFYSR | soluble |
| MGSDKIHHHHHHLDTIPTTYVDAGSVFGKTGDAEKVLNGGWNYLMETFNSYANPGYGAMLRANDAMGSDVVLNSKYGFRTHNEFSAIYGKGGTNTLSWLLAYRVINDCNGVLDNIDAAEGTQADRNRIKGQALALRGFLYLHLASCYSFAIDKDPDAVCAPIYTQSTDETIAAEGKPASSVSEVYAQSINDLEEALELIPETYVRDAKHKIDNEVVLGILSRACLYARQWEKAKTYSDKLLAKDNYLMTESEYKAGFNSVDNKEWIWGHAQTNDQSNASYQFHYLDTTTKGSYYYSFNVDPYFRDLFEDGDYRKEMLFWATDPGADVESAAYVWMRNSKFRFRDIENQLGDIVLMRVAEIYLINAEAKAHLNDPDAINKLNDLKTARGAKTIHTNLSQQDLLETIWLERRKELWGEGFSLIDIIRNQQTVVRNAYPEGPIDYIYTDENGQTHTLKKKTQGHRFFNFPDKSAFCPNSKYYLYRITDSEELANKNLYKDHPKLSIYTK | not soluble |
| MDNLVWDGIPDIRTLDQTIRKHAHPLNLIVCLPDNQIPDFQTAQDASDSECRLKHRLDQATQCLQFDSINLIEHILPDVRFWLVPPSRTRRLHEHFHHISWQTEAIPQTESKSDKPWFALPQTSERKKPEHVLVIGAGIAGASTAHALASHGISVTVLEARKAAQAASGNRQGLLYAKISPHDTGQTELLLAGYGYTKRLLGHILPDSDTWGGNGIIHLNYSRTEQQRNHELGLQKHHNHLYRSITSAEAEKIAGIPLNTPYAEPLCGLYWQHGVWLNPPAFVRTLLSHPLIELYENTTLTGISHDGEKWIASTPNGTFTATHIIYCTGAHSPCLPETNLAALPLRQIRGQTGLTPSTPFSEQLRCAVSGESYISPSWHGLHCYGASFIPNSSNTGWNEAEEASNRQALAHLNPALAESLFAANPNPQKHQGHAAIRCDSPDHLPVVGALGDIAAMRQTYAKLALDKNYRIDTTCPYLPNAYTNTAHGTRGLATAPICAAAVAAEILGLPHLFSQRLRHALHPNRTVIRAIVRRQNLIPLEHHHHHH | soluble |
| MGSDKIHHHHHHMTSTPGISDSLLSSMNGSGANNNTSAISETQDRFMKLLIAQMKNQDPLNPMDNAEVTSQMAQLSTVTGIEKMNASLSTFISSMQATQALQASSLIGNTVLVEGNSTYLAPAETEGESAAYLGVELPIGADKLTVNIKNGAGNVVKTITVTNQPAGISSLGWNGYGDDGTKLPDGRYTIEATATTGNSSVASTPLSYEQVMSVSTGSDGVKLNLSNLAAITTDQIKQIF | not soluble |
| MSLSKLKVSVFSKHLQFLQGEELAKATAAIGFDGVDLAVRKGGHVEPATVAKDLPALVAILRKNGLEVPMITTDIADTDTPFTEDLLKAASALGIRYYRFGAYKWSAEKPYAAQLEIMKPKLAKLAALNAKYQMCAMYHTHSGVGVVGASIWDLWYMMKDLDPKLMGMNYDVGHATIEGGLGGWIDSFKIAGNYVRGIAVKDFAWEKDPKGGQRSQWKPIGEGTVKFPQFYGMVAATDFAGPFQMHFEYPLGGANNGTRTLTVPKEEVHAAMKKDLDKTRAMLAQAGLEGHHHHHH | not soluble |
| MSLTDAETAVMPDRTNTSRDHAKRYVRHFLADFAKLDQEYPRTYPRMIVRGEGAYVIDEEGRRILDAGSHLGACQIGHGHPEVADRIHQQVRNIEFIALDAGISHVYAAALGERLAKMVLCDDPVFSFTNSGSESNELAFKIARQYHRRRGQPGRVKIFSRNGSYHGSTLATSAATGAAPFKEGFGPLPEGFIQGAQPSPGRCGHCGFNDACSLACLDDFERLIMAEGSETVAAVIAEPIAIPQAVKVPPPDYFVRLRKFCDDHGILLIIDEVVCGFGRTGRMFGAEHFGVHGDIVTFAKGLTSGYVPMGAVAVARHVEEVFKNAPLLHLNTYAGHPVACAAAMAVLDIMERERLVLHSARMEPILRRELQRLQNAVARVRYLSVIGLLSSVIVDISDRPDPDAVIRRVRNIAYDNGLLARVARDGALLSVHFYPPLVVAEQDIVAGVRALEIALRMIEGHHHHHH | not soluble |
| MRFFVSGMPGVGKTTLAKRIADEVRREGFKVGGIITEEIREGGKRTGFRVIALDTGEIGRLAYVGYGYPRLGKYVIDVEGFERVAIPALSRALRGADLIVIDEIGPMEFKSNEFLKALGLVLKSEKHLLATVHRRLVDRYRPLGEYYWLTPENRNAVFSEILGRIKGLLKEKLEHHHHHH | soluble |
| MLKSVLDALENGRLVELPDNDKSDALQFLATILEAVPSIPAGSNIVEIVLEHEKNSNTSLGFGWACPHARVNFDGDLCCAIGWSPAGIDYGIAGEPLVRLVVMFFVPENQRNTYLKEVSTLARVLKSNPEFQNLEPIGDLDQVRNTLLDMTHQAMSEGGKNYRARMIQLDTLTKSAGDAGHYWLKGMQIDALLVVAGPDIKPLVLSQNAELSRLATQDTQLVPAIASGNHYELQGWQIVRRSSTAYAGERVIYDCLAIKTRQGQGAPEAGG | soluble |
| MEFMKLAIEEAKKGMEKGDGGPFGAVIVKDGKVIGSGHNMVLVTKDPTAHAEVTAIRNTCKNVDNFDLSGCQLYTSCYPCPMCMGAALWSRVDAIYYGATSQDAANIGFGDHEFHEFLQNPKSDDKRKLEQFKVDNYLEPFQLWSKKDNKELY | not soluble |
| SRLDIIRAEMDVVPSPGLPEKVNEKSKNIPLPEGINLLSSKEIIDLIQTHRHQLELYVTKFNPLTDFAGKIHAFRDQFKQLEENFEDLHEQKDKVQALLENARILESKYVASWQDYHSEFSKKYGDIALKKKLEQNTKKLDEESSQLETTTRSIDSADDLDQFIKNYLDIRTQYHLRREKLATWDKQGNLKY | soluble |
| MEYREFDFWYYKIGNGDANLTCKMSYNPKSPIFTDFPDTVVHTVLEKLLPAERMVVRNVSKKLRNLFDERYRVIKNVYMQVQDEEAILFFENHEELEKTFSCNGNDGNEKYLEIALEKVAKFTKNHKLEEFEVHFDDEAGEKHRWGLYDDVSDMFKASKAVLNTKKFSIELLRPDDAKAAFSHFKPGNLEDIEIEYFCTGYKYPKYPRCPRYDDDSDDSFEDNMGMYEQLTELAHWQKAKKVKIGVDDSLDFSIEALFHLENFEISLNKFTKNDAIKIRDVLLQTAHFQSGIITFSKDPGGTNMLKVFNPKYSGGENGPIIYKTKDSRFEIGLGYSSIEFKRI | not soluble |
| MGGSHHHHHHGMASGSAGLSRLHGLFAVYKPPGLKWKHLRDTVELQLLKGLNARKPPAPKQRVRFLLGPMEGSEEKELTLTATSVPSFINHPLVCGPAFAHLKVGVGHRLDAQASGVLVLGVGHGCRLLTDMYNAHLTKDYTVRGLLGKATDDFREDGRLVEKTTYDHVTREKLDRILAVIQGSHQKALVMYSNLDLKTQEAYEMAVRGLIRPMNKSPMLITGIRCLYFAPPEFLLEVQCMHETQKELRKLVHEIGLELKTTAVCTQVRRTRDGFFTLDSALLRTQWDLTNIQDAIRAATPQVAAELEKSLSPGLDTKQLPSPGWSWDSQGPSSTLGLERGAGQ | not soluble |
| MDRLQLYESKKLRRETPLSPLLRIFAGQSVHNHRPMYFRDVAGLEDLKTYLRRTAQTRQIAHAQLFAGEEGGGAFPLALAYARYLNCQMPTDTDACGHCPSCVKYDALAHPDLFFVYPVVNASSSPAPSDDYIRQWREMLGSESYFTPADWLEYIKAGNSQPIIYSKEAEAVEQKLSFRIYEASYRVVMIWQPERMNEAMANKLLKLIEEPPEHTLFFMISSEPDKVLGTIRSRTQLINVRLLHEIEIVEALSRNNQGNTADIIRIAHLAEGNYRRAMDLYRGEWADRDNFVLMGRMMGSIIKGDPSKMRPVADELAALGRVSQIGFLTYCLRLFRELYISRVGVAKLNYLSPEEESFVDMLSGGITGQNIRPVMEEVELAIRHIRQNGNGRMIFFDLLLRLTAALAPALRAKGLK | not soluble |
| MFSPLGQFKHIVCPFLRTGRKCQSRNCFFSHDFQNSTKISPPYSENVEGYPKVKIEKSLPYKYDNCKLSICVPIVTTCIPYHSVENLNFNIRQNISTTLNLEKTNDSIKETKNENFRMDVLETYKCKQLNHQTTHLPTNTVLKKRSLFNDAISIVPNKKKQLVSAISTNSDSQGASSNIIPTPKYDSNSPAGHELRKRMTHLLYESYKDLGYSNAESSMLALLDEKNICETANSKMIYSSSCKSKILSLKKAPKKNEIQGSTPDEKLESLVHSEEELILWGYNIGDVAPVNPPDELRECDRCGTRFADPRGPCTYHWGKLFREKQGGEKIRTYTCCGVKEGDSSGCIIEDNHVFKYRHLPYLASVHPFSYLPDSTNSKQLSHCALDCELCYTTNGMELARLTVVAKESIIMDVFIKPKGKILSLNTRFSGIHDAKELESGITMDQMYIKIKELGMNKNTILIGHGLENDLNAMRLIHKRVIDTALLFTHARGPPFRYSLKYLTKKYLGTTIQTSTHDSEEDAVSALQLVFYKTKSNESQN | soluble |
| MAEFLDDQETRLCDNCKKEIPVFNFTIHEIHCQRNIGMCPTCKEPFPKSDMETHMAAEHCQVTCKCNKKLEKRLLKKHEETECPLRLAVCQHCDLELSILKLKEHEDYCGARTELCGNCGRNVLVKDLKTHPEVCGREGEEKRNEVAIPPNAYDESWGQDGIWIASQLLRQIEALDPPMRLPRRPLRAFESDVFHNRTTNQRNITAQVSIQNNLFEEQERQERNRGQQPPKEGGEESANLDFMLALSLQNEGQASSVAEQDFWRAVCEADQSHGGPRSLSDIKGAADEIMLPCEFCEELYPEELLIDHQTSCNPSRALPSLNTGSSSPRGVEEPDVIFQNFLQQAASNQLDSLMGLSNSHPVEESIIIPCEFCGVQLEEEVLFHHQDQCDQRPATATNHVTEGIPRLDSQPQETSPELPRRRVRHQGDLSSGYLDDTKQETANGPTSCLPPSRPINNMTATYNQLSRSTSGPRPGCQPSSPCVPKLSNSDSQDIQGRNRDSQNGAIAPGHVSVIRPPQNLYPENIVPSFSPGPSGRYGASGRSEGGRNSRVTPAAANYRSRTAKAKPSKQQGAGDAEEEEEE | soluble |
| MEEWDVPQMKKEVESLKYQLAFKREMSSKTIPELLKWIEDGIPKDPFLNPDLMKNNPWVEKAKCTIL | not soluble |
